# Reference: article PMC9638722, “Light regulates xylem cell differentiation via PIF in Arabidopsis”
# T1: PIF4 (Arabidopsis thaliana, UniProt Q8W2F3 1-430)
# T1 sequence: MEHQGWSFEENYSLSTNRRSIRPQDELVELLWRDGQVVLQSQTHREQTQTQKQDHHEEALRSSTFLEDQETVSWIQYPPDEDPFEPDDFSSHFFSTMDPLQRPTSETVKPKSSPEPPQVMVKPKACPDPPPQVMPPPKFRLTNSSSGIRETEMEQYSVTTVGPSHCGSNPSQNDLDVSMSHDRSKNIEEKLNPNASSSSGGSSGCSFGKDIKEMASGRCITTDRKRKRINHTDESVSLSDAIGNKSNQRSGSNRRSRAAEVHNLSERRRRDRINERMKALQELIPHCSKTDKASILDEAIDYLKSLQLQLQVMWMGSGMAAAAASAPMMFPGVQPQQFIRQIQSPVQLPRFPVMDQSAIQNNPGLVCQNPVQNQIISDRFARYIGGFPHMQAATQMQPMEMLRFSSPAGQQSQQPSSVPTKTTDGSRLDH
# B1: pCLE44 PBE1 WT (dsDNA)
# DNA 1: GTAATATAGTGAGGTGGTCACATGTAATGGATTCAATCCAC
# DNA 2: GTGGATTGAATCCATTACATGTGACCACCTCACTATATTAC
# B2: pPIL1 G-box (dsDNA)
# DNA 1: TAATGGCGTGAAGGTTCTTTCCGCTCACGTGGGCCTTTTG
# DNA 2: CAAAAGGCCCACGTGAGCGGAAAGAACCTTCACGCCATTA
# Assays:
# PIF4 [1] = biological target: T1, PIF4; experiment: EMSA; EMSA according to Martinez et al. 2018 with minor modifications, LightShift chemiluminescent kit; buffer, salt, pH and temperature not stated; conditions: protein: ivt; label: 5' biotin (probe); blunt
# PIF4 [2] = biological target: T1, PIF4; experiment: EMSA; positive control; EMSA according to Martinez et al. 2018 with minor modifications, LightShift chemiluminescent kit; buffer, salt, pH and temperature not stated; conditions: protein: ivt; label: 5' biotin; blunt
Binder,binding result (PIF4 [1]),binding result (PIF4 [2])
B1,binds,–
B2,–,binds
